Assay results reported in the supplement of paper PMC11780869.

Tested on: Bacillus subtilis
Assay: cleaved RNA product abundance (RNA/gDNA barcode ratio) relative to median wild-type variant (ratio to wild type); higher = more accumulation of the downstream cleavage product
How it was run: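 Sequencing of barcodes from gel-selected, reverse-transcribed cleaved RNA and from genomic DNA, with UMI collapsing, yielded a per-construct RNA:gDNA ratio. Scaled to the median construct with the unmutated site, this ratio is the cleaved product abundance. The barcoded reporters (truncated aprE or tetM mRNAs with mutagenized RNase Y cleavage-site windows) were integrated into the B. subtilis chromosome, and cultures grew in LB at 37°C from OD600 0.0003 to 0.3.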

[1] = experiment (reporter, strain, medium): exp 4a: truncated aprE reporter, strain BJT201 with 2% xylose (RNase J1 expressed), cleavage site: cggR-gapA (positions -7 to +36 mutated)
[2] = experiment (reporter, strain, medium): exp 8a: truncated aprE reporter, strain BJT201 with 2% xylose (RNase J1 expressed), cleavage site: glnRA (positions -5 to +31 mutated)
[3] = experiment (reporter, strain, medium): exp 2b: truncated aprE reporter, strain BJT200, cleavage site: cggR-gapA (positions -7 to +36 mutated)

| Sequence | cleaved RNA product abundance [1] | also measured |
| --- | --- | --- |
| ACAGACGAAGGAGCCGCAAAGAAGTTATCAAGGCATGAATAATCCCTCAATATAAATATCTCTCACTTATTTAAA | 0.0787 |  |
| CGACATGTCCCGCTTCTTTCATTAATCCGTTATCAACTGTTTAGCTATATACATTTACCTTTTAAGAGGAGGAAT |  | cleaved RNA product abundance [2]: 0.243 |
| CGACATGTCCCGCTTCTTTCATTAATCCGTAAGCATCTGTTTTGCTATATACATTTACCTTTTAAGAGGAGGAAT |  | cleaved RNA product abundance [2]: 0.322 |
| ACAGACGAAGGAGCCGCAAAGAAGTAATTAAGGGATGAATAATCACTCAATATAAATATCTCTCACTTATTTAAA | 0.109 |  |
| ACAGACGAAGGAGCCGCAAAGAAGTTATTAAGGGATGTATAATCCGTCAATATAAATATCTCTCACTTATTTAAA | 0.187 |  |
| ACAGACGAAGGAGCCGCAAAGTAGTTATTAAGGGATGAATAATCCCTCAATATACATATCTCTCACTTATTTAAA | 0.664 |  |
| ACAGACGAAGGAGCCGCAAAGAAGTTATTAACGAATGAATAATCCCTCAATATAAATATCTCTCACTTATTTAAA | 0.0881 | cleaved RNA product abundance [3]: 0.0836 |
| ACAGACGAAGGAGCCGCAAAGATGTTATTAAGGGATGAATAATCCCTCACTATAAATATCTCTCACTTATTTAAA |  | cleaved RNA product abundance [3]: 0.166 |
| ACAGACGAAGGAGCCGCAAAGAAGTTATTAAGGGATGAATAATCCCATAATATAAATATCTCTCACTTATTTAAA | 0.715 |  |
| ACAGACGAAGGAGCCGCAAAGAAGTTATTAAGGGATGAATAAACCCTCACTATAAATATCTCTCACTTATTTAAA | 0.173 |  |
| ACAGACGAAGGAGCCGCAAAAAAGTTATTCAGGGATGAATAATCCCTCAATATAAATATCTCTCACTTATTTAAA | 0.962 |  |
| ACAGACGAAGGAGCCGCAAACAAGTTATTTAGGGATGAATAATCCCTCAATATAAATATCTCTCACTTATTTAAA | 0.67 |  |
| ACAGACGAAGGAGCCGCAAAGAAGTTATTAAGGGATGAATAATCACTCACTATAAATATCTCTCACTTATTTAAA | 0.0806 | cleaved RNA product abundance [3]: 0.0967 |
| ACAGACGAAGGAGCCGCAAAGAAGTTATTAAGGGATGGATAATTCCTCAATATAAATATCTCTCACTTATTTAAA | 0.58 |  |
| ACAGACGAAGGAGCCGCAAAGAAGTTATTAAAGGATGAATAATCCCTCAATATAATTATCTCTCACTTATTTAAA | 0.161 |  |
| CGACATGTCCCGCTTCTTTCATTAATCAGTCAGCAACTGTTTTGCTATATACATTTACCTTTTAAGAGGAGGAAT |  | cleaved RNA product abundance [2]: 0.367 |
| ACAGACGAAGGAGCCGCAAAGAACTTATTAACGGATGAATAATCCCTCAATATAAATATCTCTCACTTATTTAAA | 0.112 |  |
| CGACATGTCCCGCTTCTTTCATTATTCCGTTAGCAACTGGTTTGCTATATACATTTACCTTTTAAGAGGAGGAAT |  | cleaved RNA product abundance [2]: 1.54 |
| ACAGACGAAGGAGCCGCATAGAAGTTATTAAGGGATGAATAATCCCTCATTATAAATATCTCTCACTTATTTAAA | 0.41 |  |
| CGACATGTCCCGCTTCTTTCATTAATACGTTAGCAACTGTTTTGCCATATACATTTACCTTTTAAGAGGAGGAAT |  | cleaved RNA product abundance [2]: 0.23 |
| ACAGACGAAGGAGCCGCAAAGAAGTTATTAAGGGATGCATAAGCCCTCAATATAAATATCTCTCACTTATTTAAA | 0.732 |  |
| ACAGACGAAGGAGCCGCAAAGTAGTTATTAAGGAATGAATAATCCCTCAATATAAATATCTCTCACTTATTTAAA | 0.148 |  |
| ACAGACGAAGGAGCCGCAAAGAAGTTATTAAGTGATGAATAATCGCTCAATATAAATATCTCTCACTTATTTAAA |  | cleaved RNA product abundance [3]: 0.522 |
| CGACATGTCCCGCTTCTTTCATTAATCCGCAGGCAACTGTTTTTCTAAATACAAATACCTTTTAAGAGGAGGAAT |  | cleaved RNA product abundance [2]: 0.213 |

| Sequence | cleaved RNA product abundance [1] | also measured |
| --- | --- | --- |
| ACAGACGAAGGAGCCGCAAAGAATTTATTAAGGGATGAATAATCCCTCAATATAAACATCTCTCACTTATTTAAA | 0.683 | cleaved RNA product abundance [3]: 0.291 |
| ACAGACGAAGGAGCCGCAAAGAAGTTATTAAGGAATTATTAATCCCTCAATATAAATATCTCTCACTTATTTAAA | 0.203 |  |
| ACAGACGAAGGAGCCGCAAAGAAGTTACTAAGGGATGAATTATCCCTCAATATAAATATCTCTCACTTATTTAAA | 0.25 | cleaved RNA product abundance [3]: 0.199 |
| ACAGACGAAGGAGCCGCAAAGAAGATATTAAGGGATAAATAATCCCTCAATATAAATATCTCTCACTTATTTAAA | 0.78 | cleaved RNA product abundance (experiment (reporter, strain, medium): exp 6: tetM reporter, strain 168, cleavage site: cggR-gapA (positions -7 to +36 mutated)): 0.468 |
| ACAGACGAAGGAGCCGCAAAGAAGTTATTAAGTGGTGAATAATCCCTCAATATAAATATCTCTCACTTATTTAAA | 0.103 |  |
| CGACATGTCCCGCTTCTTTCATTAATCCGTTAGCAACTGTTTTACTATATACATTCACCTTTTAAGAGGAGGAAT |  | cleaved RNA product abundance [2]: 0.4 |
| ACAGACGAAGGAGCCGCACAGAAGTTATTAAGGGATGAATAATCCTTCAATATAAATATCTCTCACTTATTTAAA | 0.469 | cleaved RNA product abundance [3]: 0.461 |
| CGACATGTCCCGCTTCTTTCATTAATCCCTTAGCAACTGTTTTGCTGTATACATTTACCTTTTAAGAGGAGGAAT |  | cleaved RNA product abundance [2]: 0.108 |
| ACAGACGAAGGAGCCGCAAAGAAGTTAATAAGGGATGAATAATCCCTCAATATAAATCTCTCTCACTTATTTAAA | 0.218 |  |
| CGACATGTCCCGCTTCTTTCATTAATCCGTTAGCAACTGGTTTGCTGTATACATTTACCTTTTAAGAGGAGGAAT |  | cleaved RNA product abundance [2]: 0.0825 |
| ACAGACGAAGGAGCCGCAAAGTAGTTATTAAGGGATGAATAATTCCTCAATATAAATATCTCTCACTTATTTAAA | 0.75 |  |
| ACAGACGAAGGAGCCGCATAGAAGTTATTAAGGGATGAATAATGCCTCAATATAAATATCTCTCACTTATTTAAA | 0.141 |  |
| ACAGACGAAGGAGCCGCAAATAAGTTTTTAAGGGATGAATAATCCCTCAATATAAATATCTCTCACTTATTTAAA | 0.402 | cleaved RNA product abundance [3]: 0.29 |
| CGACATGTCCCGCTTCTTTCATTAACCCGTTAGCAAGTGTTTTGCTATATACATTTACCTTTTAAGAGGAGGAAT |  | cleaved RNA product abundance [2]: 0.522 |
| ACAGACGAAGGAGCCGCGAAGAAGTTATTATGGGATGAATAATCCCTCAATATAAATATCTCTCACTTATTTAAA | 0.357 |  |
| ACAGACGAAGGAGCCGCAAACTAGTTATTAAGGGATGAATAATCCCTCAATATAAATATCTCTCACTTATTTAAA | 0.991 |  |
| ACAGACGAAGGAGCCGCAAAGAAGTTATTCAGGGATGAATAATCCCCCAAAATAAATATCTCTCACTTATTTAAA | 0.165 |  |
| ACAGACGAAGGAGCCGCAAATAAATTATTAAGGAATGAATAATCCCTCAATATAAATATCTCTCACTTATTTAAA | 0.195 |  |
| ACAGACGAAGGAGCCGCAAAGAAGTAATTAAGGGCTGAATAATCCCTCAATATAAATATCTCTCACTTATTTAAA | 0.165 | cleaved RNA product abundance [3]: 0.161 |
| CGACATGTCCCGCTTCTTTCATTAATCCGTTATCAACTGTTTTGATATATACATTTACCTTTTAAGAGGAGGAAT |  | cleaved RNA product abundance [2]: 0.26 |
| ACAGACGAAGGAGCCGCAAGGAAGTTATTAAGGGATGAATAATCCTTCAATATAAATATCTCTCACTTATTTAAA | 0.43 |  |
| CGACATGTCCCGCTTCTTTCATTATTCCGTTATCAACTGTTTTGATATATACATTTACCTTTTAAGAGGAGGAAT |  | cleaved RNA product abundance [2]: 0.385 |
| ACAGACGAAGGAGCCGCAAAGAAGTGATTAAGGGATGAATAGTCCCTCAATATAAATATCTCTCACTTATTTAAA | 0.274 | cleaved RNA product abundance [3]: 0.184 |
| CGACATGTCCCGCTTCTTTCATTAATCCTTTAGCAAATGTTTTGCTATATACATTTACCTTTTAAGAGGAGGAAT |  | cleaved RNA product abundance [2]: 0.608 |
